{"source": "paper PMC7211935", "about": "“Development of a therapeutic anti-HtrA1 antibody and the identification of DKK3 as a pharmacodynamic biomarker in geographic atrophy” (Proceedings of the National Academy of Sciences of the …, 2020)", "molecules": {"B1": {"name": "human HtrA4-PD/PDZ (protease domain and PDZ domain) (domain or fragment)", "chain": "TGTRSAGPLRRNYNFIAAVVEKVAPSVVHVQLWGRLLHGSRLVPVYSGSGFIVSEDGLIITNAHVVRNQQWIEVVLQNGARYEAVVKDIDLKLDLAVIKIESNAELPVLMLGRSSDLRAGEFVVALGSPFSLQNTATAGIVSTKQRGGKELGMKDSDMDYVQIDATINYGNSGGPLVNLDGDVIGVNSLRVTDGISFAIPSDRVRQFLAEYHEHQMKGKAFSNKKYLGLQMLSLTVPLSEELKMHYPDFPDVSSGVYVCKVVEGTAAQSSGLRDHDVIVNINGKPITTTTDVVKALDSDSLSMAVLRGKDNLLLTVIPETIN"}, "B2": {"name": "human HtrA3-PD/PDZ (protease domain and PDZ domain) (domain or fragment)", "chain": "GLHQLSSPRYKFNFIADVVEKIAPAVVHIELFLRHPLFGRNVPLSSGSGFIMSEAGLIITNAHVVSSNSAAPGRQQLKVQLQNGDSYEATIKDIDKKSDIATIKIHPKKKLPVLLLGHSADLRPGEFVVAIGSPFALQNTVTTGIVSTAQREGRELGLRDSDMDYIQTDAIINYGNSGGPLVNLDGEVIGINTLKVTAGISFAIPSDRITRFLTEFQDKQIKDWKKRFIGIRMRTITPSLVDELKASNPDFPEVSSGIYVQEVAPNSPSQRGGIQDGDIIVKVNGRPLVDSSELQEAVLTESPLLLEVRRGNDDLLFSIAPEVVM"}}, "assay_in_all_cases": "SEC; E. coli-expressed and purified human HtrA1- to 4-PD/PDZ constructs, purified as homotrimers by size-exclusion chromatography; conditions not shown (SI Appendix)", "key": {"[1]": {"target": "human HtrA1-PD/PDZ (N domain-deleted HtrA1, protease domain and PDZ domain) (human)"}, "[2]": {"target": "human HtrA2-PD/PDZ (protease domain and PDZ domain) (human)"}, "[3]": {"target": "the molecule itself"}}, "data": [{"molecule": "human HtrA1-PD/PDZ (N domain-deleted HtrA1, protease domain and PDZ domain) (domain or fragment)", "values": [{"measurement": "stoichiometry N", "setting": "[1]", "value": 3}]}, {"molecule": "human HtrA2-PD/PDZ (protease domain and PDZ domain) (domain or fragment)", "values": [{"measurement": "stoichiometry N", "setting": "[2]", "value": 3}]}, {"molecule": "B1", "values": [{"measurement": "stoichiometry N", "setting": "[3]", "value": 3}]}, {"molecule": "B2", "values": [{"measurement": "stoichiometry N", "setting": "[3]", "value": 3}]}]}
